# Target: M. tuberculosis MmpL5 Δ494-688 with C-terminal GFP-FLAG tag (M. tuberculosis) (UniProt P9WJV1)
# Assay: cryo-EM structure
substance,measurement,value
M. tuberculosis MmpL5 Δ494-688 with C-terminal GFP-FLAG tag (from UniProt P9WJV1 1-964) (natural protein),stoichiometry N,3

# — doi:10.1101/2025.06.24.661325
